pKd: −log10 of the molar value.
Key:
[1] = target: APCbc, APC R3 subdomains b and c (residues 1,483–1,533), fluorescein-labelled at Cys 1501 (UniProt P25054); test: fluorescence polarisation; fluorescence anisotropy; β-catenin titrated into 10 nM fluorescein-labelled APC construct; PBS, 1 mM DTT; 15°C; adjusted anisotropy fitted to a Hill equation
[2] = target: pAPCabc with the rigid linker (RL) inserted between residues 1,500 and 1,501, fluorescein-labelled at Cys 1501 (UniProt P25054); test: as above
[3] = target: pAPCc, phospho domain c of APC R3 in the phosphomimetic form, fluorescein-labelled at Cys 1501 (UniProt P25054); test: as above
[4] = target: APCabc with the flexible linker (FL) inserted between residues 1,478 and 1,479, fluorescein-labelled at Cys 1501 (UniProt P25054); test: stopped-flow fluorescence; association: 25 nM fluorescein-labelled APC mixed 1:1 by volume with 250-2,000 nM β-catenin (pseudo first-order); dissociation: pre-formed 1:1 complex (200 nM) mixed with 10 times molar excess of the same APC construct; PBS, 1 mM DTT; 15°C
[5] = target: APCabc with the flexible linker (FL) inserted between residues 1,500 and 1,501, fluorescein-labelled at Cys 1501 (UniProt P25054); test: as above
[6] = target: APCabc with the rigid linker (RL) inserted between residues 1,500 and 1,501, fluorescein-labelled at Cys 1501 (UniProt P25054); test: as above
[7] = target: APCabc, third 20aa repeat (R3) region of APC with subdomains a, b and c, fluorescein-labelled at Cys 1501 (UniProt P25054); test: as above
[8] = target: APCbc, APC R3 subdomains b and c (residues 1,483–1,533), fluorescein-labelled at Cys 1501 (UniProt P25054); test: as above
[9] = target: pAPCabc D1486S, fluorescein-labelled at Cys 1501 (UniProt P25054); test: as above
[10] = target: pAPCabc with the flexible linker (FL) inserted between residues 1,500 and 1,501, fluorescein-labelled at Cys 1501 (UniProt P25054); test: as above
[11] = target: pAPCabc with the polyproline linker (PP) inserted between residues 1,500 and 1,501, fluorescein-labelled at Cys 1501 (UniProt P25054); test: as above
[12] = target: pAPCabc with the rigid linker (RL) inserted between residues 1,500 and 1,501, fluorescein-labelled at Cys 1501 (UniProt P25054); test: as above
[13] = target: pAPCabc, full-length R3 domain APCabc containing all five phosphomimetics, fluorescein-labelled at Cys 1501 (UniProt P25054); test: as above

armadillo (ARM) repeat domain of human β-catenin (residues 134–671), sequence (P35222 other isoform, or with tags, fused parts or gaps): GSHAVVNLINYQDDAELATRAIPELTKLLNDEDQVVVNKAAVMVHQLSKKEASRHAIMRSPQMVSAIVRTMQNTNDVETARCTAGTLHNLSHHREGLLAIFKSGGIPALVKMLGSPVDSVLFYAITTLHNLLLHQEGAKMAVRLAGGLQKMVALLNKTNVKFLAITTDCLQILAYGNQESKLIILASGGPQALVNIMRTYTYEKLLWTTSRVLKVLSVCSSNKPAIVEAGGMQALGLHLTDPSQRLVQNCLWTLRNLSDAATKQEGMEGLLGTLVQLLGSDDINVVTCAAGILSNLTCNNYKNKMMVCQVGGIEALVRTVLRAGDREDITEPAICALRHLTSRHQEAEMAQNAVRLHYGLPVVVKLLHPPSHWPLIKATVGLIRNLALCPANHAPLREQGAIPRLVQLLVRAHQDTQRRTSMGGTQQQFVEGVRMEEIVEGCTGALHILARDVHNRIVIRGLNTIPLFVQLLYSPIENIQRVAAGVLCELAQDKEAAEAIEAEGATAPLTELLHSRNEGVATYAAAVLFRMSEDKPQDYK

## armadillo (ARM) repeat domain of human β-catenin (residues 134–671) (from UniProt P35222 134-671) (domain or fragment)
[1]
  pKd: 6.71
[2]
  pKd: 7.97
[3]
  pKd: 6.80
[4]
  koff fast: 0.77 s⁻¹
  koff slow: 0.177 s⁻¹
  kon: 8.35e+07 M⁻¹ s⁻¹
  time constant τ (from the fast off-rate): 0.9 s
[5]
  koff fast: 0.45 s⁻¹
  koff slow: 0.1 s⁻¹
  kon: 2.41e+07 M⁻¹ s⁻¹
  time constant τ (from the fast off-rate): 1.54 s
[6]
  koff fast: 0.89 s⁻¹
  koff slow: 0.223 s⁻¹
  kon: 1.81e+07 M⁻¹ s⁻¹
  time constant τ (from the fast off-rate): 0.8 s
[7]
  koff fast: 0.46 s⁻¹
  koff slow: 0.11 s⁻¹
  kon: 4.92e+07 M⁻¹ s⁻¹
  time constant τ (from the fast off-rate): 1.54 s
[8]
  koff fast: 0.73 s⁻¹
  kon: 1.48e+07 M⁻¹ s⁻¹
  time constant τ (from the fast off-rate): 0.96 s
[9]
  koff fast: 2.89 s⁻¹
  koff slow: 0.4 s⁻¹
  kon: 1.51e+08 M⁻¹ s⁻¹
  time constant τ (from the fast off-rate): 0.24 s
[10]
  koff fast: 0.16 s⁻¹
  koff slow: 0.0085 s⁻¹
  kon: 1.01e+08 M⁻¹ s⁻¹
  time constant τ (from the fast off-rate): 4.45 s
[11]
  koff fast: 0.44 s⁻¹
  koff slow: 0.018 s⁻¹
  kon: 8.97e+07 M⁻¹ s⁻¹
  time constant τ (from the fast off-rate): 1.59 s
[12]
  koff fast: 0.21 s⁻¹
  koff slow: 0.0122 s⁻¹
  kon: 1.02e+08 M⁻¹ s⁻¹
  time constant τ (from the fast off-rate): 3.52 s
[13]
  koff fast: 0.07 s⁻¹
  koff slow: 0.0021 s⁻¹
  kon: 2.07e+08 M⁻¹ s⁻¹
  time constant τ (from the fast off-rate): 9.51 s
